Experimental data from the supplement of paper PMC12042874.
± gives the uncertainty stated by the source.

test: amyloid nucleation score (Sup35N fusion, yeast selection) (log enrichment); library NNK2; higher = more nucleation; inactive = no reads after selection
Procedure, shortened: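 On medium lacking adenine and uracil, psi-negative yeast expressing peptides of 20 random codons fused to Sup35N were grown 7 days at 30°C after a 24-hour induction with 100 μM copper sulfate. Illumina sequencing of input and output plasmid inserts gave the reads, and sequences under 100 input reads were excluded. The nucleation score is the DiMSum log enrichment of output over input reads, centred on the mode score of non-aggregating sequences.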

| Substance | amyloid nucleation score |
| --- | --- |
| AFCKALCIVRRYSPPPLIVA | inactive |
| SVRMYWAGLLSENKRYNSQS | 3.89 ± 0.12 |
| VSSHNLMPNRNWMFETQLSW | -0.297 ± 1.1 |
| LIVESI | inactive |
| YQVFSQLEMRTYCKGKDFTL | 4.724 ± 0.038 |
| IVDSVR | 0.388 ± 0.32 |
| CLVKCAMPILVINICAG | 7.82 ± 0.061 |
| VYLYGPQLLSRWWIQLCCQM | 2.96 ± 0.15 |
| NTRCQFSTIGHFAASHDRRD | 1.17 ± 0.21 |
| HCVDLLREMQ | 0.621 ± 0.43 |
| GALGTRRFSGMCLVCESRSG | 5.28 ± 0.097 |
| YNFGEFACYHH | 3.81 ± 0.099 |
| IRLTSAYLHSDVWGVMQWNK | 4.823 ± 0.041 |
| GLYANFVPAIRTDGRGWRFW | -0.352 ± 0.48 |
| GLVRERIDTAHPRSTSYC | 0.561 ± 0.62 |
| VTNCLTIWAFMGSRRCWKAP | 3.62 ± 0.11 |
| WRDTC | -0.086 ± 0.49 |
| NFTSGGRRHNVERVGHLGLV | -0.168 ± 0.76 |
| SVNMFKFRTDSSFCDLTLCH | 0.423 ± 0.8 |
| YGPYSLSSF | -0.105 ± 1.1 |
| EEYIRRQGVLTASLVYSKYI | inactive |
| LFSHELADSSTVMKYTWWAV | 4.23 ± 0.045 |

| Substance | amyloid nucleation score |
| --- | --- |
| ATRCGDFDQACHSGIT | 0.749 ± 0.28 |
| IYQIGDEQHDFLCPLKVFVN | -0.336 ± 0.76 |
| TCVAACTSRRGGISRLLPGN | -0.295 ± 0.38 |
| QEFLWWGREQLGVCCLGVGR | 2.88 ± 0.14 |
| RPHTLGHRCSCQSNFFLLPL | 0.025 ± 1.1 |
| YTRKVSAG | -0.063 ± 0.36 |
| SYDVLCILRS | -0.547 ± 0.76 |
| WHGKVGRTAWCLGMLFYDVR | 1.02 ± 0.2 |
| QELIDIGTNSFVDCCS | inactive |
| GVDKKVSSTECIETVSCFIT | inactive |
| KINVSRFN | -0.146 ± 0.33 |
| ENNFYY | 0.953 ± 0.26 |
| SQRLIRWNCLNAGTIMPSVV | 0.089 ± 1.1 |
| QFRLQWGLLVQCAGDSVLVM | -0.085 ± 0.61 |
| WTFEFLIRVLEWRSVMFFAG | inactive |
| LLGESRGVDSLQTTLWRSRR | 0.334 ± 0.24 |
| YRYPRCRVRLVS | -0.822 ± 0.35 |
| CANFRSGYGA | -0.241 ± 0.35 |
| TYMDNFFVSCGMLKQVYASV | -0.223 ± 0.16 |
| DIDKGSTEGDVMEGKLVNNV | 0.171 ± 0.2 |
| HVRHGESLFFANQA | -0.038 ± 1.1 |
| FDQVWRCVASLRPIVLSCSS | 0.322 ± 0.54 |

| Substance | amyloid nucleation score |
| --- | --- |
| TKSVVLMNSMSS | 0.072 ± 1.1 |
| KYFMVVLVNIIFLYPGL | inactive |
| FCIVQIMDVTVLGSTSATID | 5.592 ± 0.054 |
| FLVFHPRDSMNI | 1.49 ± 0.44 |
| FMLYMRLCKFYYFFGS | -1.29 ± 0.41 |
| IGGLISLGISSIERGYSSLI | inactive |
| HHVEGMGYFLS | 0.175 ± 0.25 |
| SKGSGICRRISTEYDGVGQS | 0.6 ± 0.42 |
| WSYGLLWPSVKLIPACPPAS | 0.244 ± 0.42 |
| STPPLILQSYV | -1.17 ± 0.75 |
| VVNLDSF | -1.95 ± 0.62 |
| LSMQKCSLIIISRCGRSRNM | 3.77 ± 0.057 |
| LAPLDLSLVFWNTRNVLVL | 0.746 ± 0.67 |
| CTAYNITYMTATSRGMSC | inactive |
| EYSYVVGMFREIVDTRTVFV | 0.107 ± 0.2 |
| CVAVNLCVAALV | -0.049 ± 0.76 |
| VGVWATGRGCSISEYNGKNR | 1.09 ± 0.12 |
| FIVMEVVEERCMSIVVESNQ | -0.804 ± 0.61 |
| GIVFIYMNRPSFVVDDLTAG | 7.27 ± 0.078 |
| LCSYANKDFKVHRSHDFVRV | 0.369 ± 0.43 |
| ELMDNFLVSFVGKHRVTRSS | inactive |
| GVLNAVHCQVYWL | 7.869 ± 0.035 |

| Substance | amyloid nucleation score |
| --- | --- |
| TVGVCGTLPGSASRHVYFRE | 0.286 ± 0.24 |
| TLQLSSADPGLNAFSDVYRV | -0.627 ± 1.1 |
| DFCYFSFRPLHLRFQNTDWP | 0.007 ± 1.1 |
| NKVVAFNGLV | inactive |
| ALFVYYDIQVVGITY | -1.1 ± 0.4 |
| TVRVGAIVNSTHLVGTNSAF | -0.314 ± 0.34 |
| RLGRC | 0.94 ± 0.33 |
| VLLLAQHVLSGSNFTMG | 3.44 ± 0.045 |
| SHLCQVLVVLGGASTV | 6.41 ± 0.077 |
| LSWITPIKIGISFSLALIFT | -0.974 ± 0.49 |
| NSSRL | -0.166 ± 1.1 |
| IRCGREGLRR | inactive |
| IHAFLALVNCNDTSTKTEVK | -0.435 ± 0.56 |
| SLATSAWVVYLWFVVRDIVV | 0.388 ± 0.33 |
| AFNATIRNAC | -0.746 ± 0.62 |
| GIKRMCMVPPVIKSNAYSLN | 2.95 ± 0.062 |
| WVFKCVSNKERNYISCACSM | 4.79 ± 0.063 |
| AFGFSI | -1.3 ± 0.42 |
| DRTKNFLCMMKRGFLSKIPW | 0.227 ± 0.56 |
